The numbers were not newly measured in article PMC5659385, which cites them from elsewhere.

For the data set, the target named is concanavalin A (Canavalia ensiformis) (UniProt P02866).
UniProt P02866, sequence (P02866 30-148, chain 1 of 2): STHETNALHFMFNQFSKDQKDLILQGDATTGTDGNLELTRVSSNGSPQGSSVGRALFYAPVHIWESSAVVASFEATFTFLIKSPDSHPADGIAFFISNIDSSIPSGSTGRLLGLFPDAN
UniProt P02866, sequence (P02866 164-281, chain 2 of 2): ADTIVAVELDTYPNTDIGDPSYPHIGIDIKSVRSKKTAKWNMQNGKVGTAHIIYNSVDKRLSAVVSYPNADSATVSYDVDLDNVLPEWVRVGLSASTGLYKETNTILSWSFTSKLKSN

Broadly, the Kd is the constant that tells how readily two partners part at equilibrium. Regarding glucose oxidase (from UniProt P13006), the Kd was 1.64 nM.
